This is an account of results in paper PMC4464074, “The HRDC domain of E. coli RecQ helicase controls single-stranded DNA translocation and double-stranded DNA unwinding rates without affecting mechanoenzymatic coupling”.

Test in all cases: fluorescence anisotropy; SF50: 50 mM Tris-HCl pH 7.5, 50 mM NaCl, 1 mM DTT, 5 mM MgCl2, 50 µg/mL BSA, 25 °C; anisotropy with 10 nM forked duplex
What all share (conditions): protein: recombinant; label: 3'-fluorescein on fork2; fork: 33 bp duplex with two 21-nt ssDNA arms (3' arm of fork1, 5' arm of fork2)

Data set [1] addresses RecQWT (Escherichia coli, UniProt P15043 1-609).
Data set [2] concerns the target RecQY555A (Escherichia coli, UniProt P15043 1-609, Y555A).
Data set [3] concerns the target RecQ523 (Escherichia coli, UniProt P15043 1-523).

B1: forked duplex (fork1/fork2) (mixed)
DNA 1: CGTTGCGCAATTAAGCTCTAAGCCATCCGCAAATTTTTTTTTTTTTTTTTTTTT
DNA 2: TCCTTTTGATAAGAGGTCATTTTTGCGGATGGTTAGAGCTTAATTGCGCAACG
As to B1, the Kd was determined as 13 ± 4 nM in data set [1], 46 ± 2 nM in data set [2] and 60 ± 2 nM in data set [3].

In general, Kd refers to the free concentration of one partner at which half of the binding sites on the other are occupied at equilibrium, for simple one-to-one binding.
